Measured values: publication PMC7615196, “PIM1 controls GBP1 activity to limit self-damage and to guard against pathogen infection” (Science (New York, N.Y.), 2023)
Numbering of substitutions follows the chain as printed. Numbers in names are those of the source.

Experiments:
[1] = molecular target: phosphorylated Flag-GBP1 (GBP1pS156) purified from THP-1ΔGBP1+Tet-Flag-GBP1 WT cells (human) (UniProt P32455); assay: co-IP; semi-quantitative co-immunoprecipitation: purified phosphorylated Flag-GBP1 bound to Flag(M2)-agarose beads, incubated with different concentrations of purified HA-14-3-3 proteins for 1 hour at 4°C in 25 mM HEPES pH 7.3, 100 mM NaCl, 0.01% Triton X-100, 5% glycerol, 1 mM DTT; blots …
[2] = molecular target: 14-3-3σ (UniProt P31947); assay: co-IP of Flag-GBP1 and HA-14-3-3; settings: reference: wild type; sites S156
[3] = molecular target: 14-3-3ε (UniProt P62258); assay: co-IP of Flag-GBP1 and HA-14-3-3; settings: reference: wild type; sites S156
[4] = molecular target: 14-3-3θ (UniProt P27348); assay: co-IP of Flag-GBP1 and HA-14-3-3; settings: reference: wild type; sites S156
[5] = molecular target: 14-3-3γ (UniProt P61981); assay: co-IP of Flag-GBP1 and HA-14-3-3; settings: reference: wild type; sites S156
[6] = molecular target: 14-3-3η (UniProt Q04917); assay: co-IP of Flag-GBP1 and HA-14-3-3; settings: reference: wild type; sites S156
[7] = molecular target: 14-3-3β (UniProt P31946); assay: co-IP of Flag-GBP1 and HA-14-3-3; settings: reference: wild type; sites S156
[8] = molecular target: 14-3-3ζ (UniProt P63104); assay: co-IP of Flag-GBP1 and HA-14-3-3; settings: reference: wild type; sites S156
[9] = molecular target: endogenous GBP1 (IFNγ-treated THP-1 cells) (human (endogenous in THP-1)) (UniProt P32455); assay: cross-linking; GBP1 oligomerization assay: THP-1 cells (IFNγ±Dox; also ΔPIM1 or Δ14-3-3σ cells) lysed, GBP1 precipitated with CHAPS buffer, pellets cross-linked with 4 mM DSS for 30 minutes at room temperature, immunoblot
[10] = molecular target: recombinant GBP1 (non-phosphorylated) (human) (UniProt P32455); assay: SEC; GBP1 dimerization: samples without nucleotide or incubated with 1 mM GTP or 1 mM GDP + 10 mM AlF3; free GBP1 or phosphorylated, 14-3-3σ-bound GBP1
[11] = molecular target: T1, phosphorylated Flag-GBP1 (GBP1pS156) purified from THP-1ΔGBP1+Tet-Flag-GBP1 WT cells (human, UniProt P32455 1-592, phosphoserine at 156); assay: GBP1 phosphorylated at S156; semi-quantitative co-IP
T1 chain: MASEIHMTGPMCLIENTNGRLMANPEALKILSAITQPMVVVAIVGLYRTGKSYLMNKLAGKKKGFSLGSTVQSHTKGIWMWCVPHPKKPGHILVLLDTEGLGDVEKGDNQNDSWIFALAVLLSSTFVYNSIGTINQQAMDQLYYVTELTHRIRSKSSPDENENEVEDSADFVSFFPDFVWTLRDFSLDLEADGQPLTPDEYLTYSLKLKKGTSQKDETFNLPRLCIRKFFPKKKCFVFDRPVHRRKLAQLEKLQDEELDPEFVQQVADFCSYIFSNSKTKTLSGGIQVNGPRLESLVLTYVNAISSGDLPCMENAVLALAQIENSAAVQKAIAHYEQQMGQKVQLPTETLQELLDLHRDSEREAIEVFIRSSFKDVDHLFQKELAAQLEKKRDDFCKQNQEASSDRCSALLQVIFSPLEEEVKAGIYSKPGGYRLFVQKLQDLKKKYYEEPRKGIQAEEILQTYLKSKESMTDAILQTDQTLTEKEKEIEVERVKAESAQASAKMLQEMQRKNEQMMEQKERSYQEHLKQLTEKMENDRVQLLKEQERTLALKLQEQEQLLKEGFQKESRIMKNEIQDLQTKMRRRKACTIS

[12] = molecular target: T2, in vitro phosphorylated recombinant GBP1 (human, UniProt P32455 1-592, phosphoserine at 156 (GBP1pS156); Ser569 and Thr590 also identified as sites phosphorylated by PIM1 in vitro); assay: ITC; GBP1 phosphorylated at S156
T2 chain: T1 chain

[13] = molecular target: the molecule itself; assay: cryo-EM structure; single particle cryo-EM of the SEC-purified phospho-GBP1:14-3-3σ complex; crystal structures docked as rigid bodies
[14] = molecular target: T2, in vitro phosphorylated recombinant GBP1
[15] = molecular target: the molecule itself; assay: cross-linking; GBP1 oligomerization assay: THP-1 cells (IFNγ±Dox; also ΔPIM1 or Δ14-3-3σ cells) lysed, GBP1 precipitated with CHAPS buffer, pellets cross-linked with 4 mM DSS for 30 minutes at room temperature, immunoblot

HA-14-3-3σ (from UniProt P31947 1-248) (natural protein)
Kd [1]: 0.37 µM

GBP1 (from UniProt P32455) S156A
binding against the reference [2]: lost
binding against the reference [3]: lost
binding against the reference [4]: lost
binding against the reference [5]: lost
binding against the reference [6]: lost
binding against the reference [7]: lost
binding against the reference [8]: lost

endogenous GBP1 (IFNγ-treated THP-1 cells) (from UniProt P32455 1-592) (natural protein)
stoichiometry N [9]: 2

recombinant GBP1 (non-phosphorylated) (from UniProt P32455 1-592) (natural protein)
stoichiometry N [10]: 2

B1: HA-14-3-3ε (natural protein)
chain: MDDREDLVYQAKLAEQAERYDEMVESMKKVAGMDVELTVEERNLLSVAYKNVIGARRASWRIISSIEQKEENKGGEDKLKMIREYRQMVETELKLICCDILDVLDKHLIPAANTGESKVFYYKMKGDYHRYLAEFATGNDRKEAAENSLVAYKAASDIAMTELPPTHPIRLGLALNFSVFYYEILNSPDRACRLAKAAFDDAIAELDTLSEESYKDSTLIMQLLRDNLTLWTSDMQGDGEEQNKEALQDVEDENQ
Kd [11]: 1.86 µM

B2: HA-14-3-3β (natural protein)
chain: MTMDKSELVQKAKLAEQAERYDDMAAAMKAVTEQGHELSNEERNLLSVAYKNVVGARRSSWRVISSIEQKTERNEKKQQMGKEYREKIEAELQDICNDVLELLDKYLIPNATQPESKVFYLKMKGDYFRYLSEVASGDNKQTTVSNSQQAYQEAFEISKKEMQPTHPIRLGLALNFSVFYYEILNSPEKACSLAKTAFDEAIAELDTLNEESYKDSTLIMQLLRDNLTLWTSENQGDEGDAGEGEN
Kd [11]: 2.31 µM

B3: HA-14-3-3ζ (natural protein)
chain: MDKNELVQKAKLAEQAERYDDMAACMKSVTEQGAELSNEERNLLSVAYKNVVGARRSSWRVVSSIEQKTEGAEKKQQMAREYREKIETELRDICNDVLSLLEKFLIPNASQAESKVFYLKMKGDYYRYLAEVAAGDDKKGIVDQSQQAYQEAFEISKKEMQPTHPIRLGLALNFSVFYYEILNSPEKACSLAKTAFDEAIAELDTLSEESYKDSTLIMQLLRDNLTLWTSDTQGDEAEAGEGGEN
Kd [11]: 1.12 µM

B4: HA-14-3-3θ (natural protein)
chain: MEKTELIQKAKLAEQAERYDDMATCMKAVTEQGAELSNEERNLLSVAYKNVVGGRRSAWRVISSIEQKTDTSDKKLQLIKDYREKVESELRSICTTVLELLDKYLIANATNPESKVFYLKMKGDYFRYLAEVACGDDRKQTIDNSQGAYQEAFDISKKEMQPTHPIRLGLALNFSVFYYEILNNPELACTLAKTAFDEAIAELDTLNEDSYKDSTLIMQLLRDNLTLWTSDSAGEECDAAEGAEN
Kd [11]: 1.73 µM

B5: recombinant 14-3-3σ (natural protein, human, UniProt P31947 1-248, looked up)
chain: MERASLIQKAKLAEQAERYEDMAAFMKGAVEKGEELSCEERNLLSVAYKNVVGGQRAAWRVLSSIEQKSNEEGSEEKGPEVREYREKVETELQGVCDTVLGLLDSHLIKEAGDAESRVFYLKMKGDYYRYLAEVATGDDKKRIIDSARSAYQEAMDISKKEMPPTNPIRLGLALNFSVFHYEIANSPEEAISLAKTTFDEAMADLHTLSEDSYKDSTLIMQLLRDNLTLWTADNAGEEGGEAPQEPQS
notes: 14-3-3σ (stratifin), ORF from cDNA of IFNγ-primed THP-1 WT cells via pLenti-Tet-14-3-3σ into pET15d-6xHis-3C; homodimer in the cryo-EM map; also called SFN; YWHAS; source: E. coli BL21, purified (Ni-NTA, 3C cleavage, reverse Ni-IMAC, SEC); not shown: His6, N-terminal, cleaved
Kd [12]: 0.4 µM
stoichiometry N [13]: 2
GTPase activity assay (rate of GTP hydrolysis, free phosphate by Malachite Green), 2 μM purified GBP1:14-3-3σ complex compared to free GBP1 [14]: > 8 fold

B6: GBP1^S156A (Dox-inducible, THP-1ΔGBP1+GBP1^S156A cells) (natural protein, human, UniProt P32455 1-592, looked up)
chain: T1 chain with S156A
notes: pLenti-Tet-GBP1 mutated by site-directed mutagenesis; also called phosphodeficient GBP1; source: THP-1ΔGBP1+Tet-GBP1 S156A, Dox-induced, in lysate
stoichiometry N [15]: 2

B7: GBP1^R153A/P158A (14-3-3 binding motif mutant, Dox-inducible in THP-1ΔGBP1) (natural protein, human, UniProt P32455 1-592, looked up)
chain: T1 chain with R153A, P158A
notes: pLenti-Tet-GBP1 mutated by site-directed mutagenesis; source: THP-1ΔGBP1+Tet-GBP1 mutant, Dox-induced, in lysate
stoichiometry N [15]: 2

B8: GBP1^R151A/R153A/K155A (kinase motif mutant, Dox-inducible in THP-1ΔGBP1) (natural protein, human, UniProt P32455 1-592, looked up)
chain: T1 chain with R151A, R153A, K155A
notes: as for B7
stoichiometry N [15]: 2

B9: HA-14-3-3η (natural protein)
chain: MGDREQLLQRARLAEQAERYDDMASAMKAVTELNEPLSNEDRNLLSVAYKNVVGARRSSWRVISSIEQKTMADGNEKKLEKVKAYREKIEKELETVCNDVLSLLDKFLIKNCNDFQYESKVFYLKMKGDYYRYLAEVASGEKKNSVVEASEAAYKEAFEISKEQMQPTHPIRLGLALNFSVFYYEIQNAPEQACLLAKQAFDDAIAELDTLNEDSYKDSTLIMQLLRDNLTLWTSDQQDEEAGEGN
Kd [11]: 6.43 µM

B10: HA-14-3-3γ (natural protein)
chain: MVDREQLVQKARLAEQAERYDDMAAAMKNVTELNEPLSNEERNLLSVAYKNVVGARRSSWRVISSIEQKTSADGNEKKIEMVRAYREKIEKELEAVCQDVLSLLDNYLIKNCSETQYESKVFYLKMKGDYYRYLAEVATGEKRATVVESSEKAYSEAHEISKEHMQPTHPIRLGLALNYSVFYYEIQNAPEQACHLAKTAFDDAIAELDTLNEDSYKDSTLIMQLLRDNLTLWTSDQQDDDGGEGNN
Kd [11]: 4.2 µM
